Results published in the nanobody polyreactivity screen of Harvey et al. (2022).

Assay: yeast display, Sf9 membrane polyspecificity reagent, FACS + sequencing; frameworks hold sequencing errors
Method in brief: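 After 36–48 hours of galactose induction, yeast (Saccharomyces cerevisiae BJ5465) displaying a synthetic nanobody library were stained at 4 °C for 1 hour with 10% biotinylated, detergent-solubilized Sf9 membrane reagent. Streptavidin microbeads enriched the stained cells before FACS sorting into low and high (top ~1%) gates on anti-HA and streptavidin fluorescence. Each clone's polyreactivity label reflects its gate of origin.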

| Sequence | polyreactivity (PSR sort gate) |
| --- | --- |
| QVQLVESGGGLVQAGGTLRLSCAASGYTLTINVMGWYRPAPGKERELVAAITSSGASTNYADSVKGRFTISRDNAKNTVYLQMNSLKPEDTAVYYCNVGNEHQSDFVVPFDYNHWGQGTQVTVSS | low polyreactivity |
| QVQLVESGGGLVQAGGTLRLSCAPSGHIVFYYTKGWYRQAPGKERELVAGITIGGSTNYADSVKGRFTISRDNAKNTVYLQMNSLKPEDTAVYYCNVVKYVYIYSYWEYYYWGQGTQVTGSS | low polyreactivity |
| QVQLVESGGGLVQAGGTLRLSCDASGRTFHVYAMGWYRHAPGKERELVAAISGRTGSTYYADSVKGRFTISRDIAKNTVYLQMNSLKPEDTAVYYCAKGYSYGWWGGFGYWGQGTQVTVSS | high polyreactivity |
| QVQLVESGGGLVQAGGTLRLSCPASGSNFNRYAMGSYRKAPGKERELVAAISSTGSTFYADSVKWRFTISRDNAKITVYLQMNSLTPEDTAVYYCNADATHDWLRVDTYEYWGQGTQVTVSS | low polyreactivity |
| QVQLVESGGGLVQAGGTLRLSCSASGGTIAIYAMGWYRHARGKEREMVARISYSSGSTHYADSVKGRFTISRDNAKNTVFLQMNSLKPEDSAVYYCAATAYWFYAKDYYWGQGSQVTVSS | high polyreactivity |
| QVQLVESGGGLVQAGGTLRLSCSASGRTFFSYAMGWYRQAQGKERELVAAITYSGGRTYYADSVKGRFTISRDNAKNTVYVQMNSLKRDDTAVYYCAGTHYREKMDYWGQGTQLTVSS | low polyreactivity |
| QVQLVESGGGLVQAGGTLRLSGAASGSTFFFNAMGWYRQAPGKEWELVAAITGSGGSTYYADSVQGRFTISRDNAKNTVYLQMNSLKPEDTAVYYCAAYGAKPSEYYWGQGTQVTVSS | low polyreactivity |
| QVQLVESGGGLVQAGGTLRLSGAASGSTFVYNAMGWNIQAPGKERDLVAVITRRGGSPYYADSVNGRFTISRDNEKKTVYLQMNILNPEDTAVYYCAAGYRRTQTTDYHYWGHGTQVTVSS | high polyreactivity |
| QVQLVESGGGLVQAGRSLRISCAASGRIFYYNDMGRYRQAPGKERELVAAITWTDDGTYYADSVKARFTISRDNAKNTVYLQMNSLKPEVTAVYYCAAESFYGFEYWGQGTQLTVSS | low polyreactivity |
| QVQLVESGGGLVQAGRSLRLICAASGSTFVIYDMVWYRQAPGKERELVAAISYSGGSTYYADSVKGRFKISRDNAKNTVYLEMNSLKPEDTAVYYCNAGVLVLLYSYLQSELEYWGQGTQVTVSS | low polyreactivity |
| QVQLVESGGGLVQAGRSLRLSCAASGFIILGNAMGWYRQAPGKERELVAAISSGGSTYADSVKGRFTISRDNAKNTVYLQMNSLKPEDTAVYYCAVDRAFRAQNYHEYDYWGQGTQVTVSS | low polyreactivity |
| QVQLVESGGGLVQAGRSLRLSCAASGITLVRNAMGWSRQAPGKEMELVAAISSNGDNTYYADSVKGRFTISSDNAKNTVYLQMNSLKPEDTAVYYCAVGGPVIWWGPKYDYWGQGTQVTVSS | high polyreactivity |
| QVQLVESGGGLVQAGRSLRLSCAASGLIFSWYAMGWYRQAPGKEREFVAAIRWSGSGTYYADSVKGRFTISRDNAKNTVYLQMNSLKPEDTAVYYCAVRWSSGSRRYNYWGQGTQVTVSS | high polyreactivity |
| QVQLVESGGGLVQAGRSLRLSCAASGRIFYRKAMGWYRQAPGKERELVAGITSGGSTNYADSVKGRFTISRDNEKNTFDLQMNSVKPEDTAVYYCAKASPAKFYSEAGYDYWGQGTQVTVSS | low polyreactivity |
| QVQLVESGGGLVQAGRSLRLSCAASGRSFKYYPMGWYRQAPGKERELVARISRSSGNTYYADSVKGRFTISRDTAKNTVYLQMNSLKAEDTAVYFCATVPHYNGFNYWGQGTQVTVSS | high polyreactivity |
| QVQLVESGGGLVQAGRSLRLSCAASGRTFPYYVMGWYRQAPGKDRELVAAINSGGRTNYADSVKGRFTISRDNAKNTVYLQLNSLKPEDTAVYYCTKRGHPARLGYYYWGQGTLVTVSS | low polyreactivity |

| Sequence | polyreactivity (PSR sort gate) |
| --- | --- |
| QVQLVESGGGLVQAGRSLRLSCAASGSIFSRNAMGWYRQAPGKERELVAAITGSASSTYYADSVKGRFTISRDNAKNTVYLQMNSLKPEDTAVYYCNAARVYLSECGQGTQVTVSS | high polyreactivity |
| QVQLVESGGGLVQAGRSLRLSCAASGSILGTYAMGWYRQAPGKERELVAAISSSGRTSYADSVKGRFTISRDNAKNTVYLQMNSLKPEDTAVYYCNASNYIVLINDPDAAPWLYDYWGQGTQVTVSS | low polyreactivity |
| QVQLVESGGGLVQAGRSLRLSCAASGSTFSVNAMGWYRQAPGKERELVAAIPSGGNTYADSVKGRFTISRDNAKNTVYLQMNSLKPEDTAVYYCAVDNRDLFFYPGGFDYWGQGTQVTVSS | low polyreactivity |
| QVQLVESGGGLVQAGRSLRLSCAASGSTFVHNAMGWYRQAPGKERELVAAISRSGGRTYYADSVKGRFTISRDNAKNTVYLQMNSLKPEDTAVYDCAAGLHWTRYPSAHYLFEYWGQGTQVTVSS | high polyreactivity |
| QVQLVESGGGLVQAGRSLRLSCAASGSTFVNYAMGWYRQAPGKERELVAAISRSGGRTYYADSVKGRFTISRDNAKNTVYLQMNSLKPEDTAVYYCAPLLLSPEYGYWGQGTQVTVSS | high polyreactivity |
| QVQLVESGGGLVQAGRSLRLSCAASGSTFWEYAMGWYRQAPGNEREFVAAISTSGGSTYYADSLKGRFTISRDTAKYTVYLQMNSLKPEDTAVYYCAAGRVRRRVWYNYWGQGTQVTVSS | high polyreactivity |
| QVQLVESGGGLVQAGRSLRLSCAASGYTFSPNDMGWYRQAPGKERELVATITYGGGTTYYADSVKGRFTISRDNAKNTVYLQMNSLKPEDTAVYYCAKDVPLYRAHDGYDYWGQGTQVTVSS | low polyreactivity |
| QVQLVESGGGLVQAGRSLRLSCAASGYTFYVYAMGWYRQAPGKERELVASISSGGITYYADSVKGRFTISRDNAKNTVYLQMNILKPEDTAVYYCAADWQWTYDYWGQGTQVTVSS | low polyreactivity |
| QVQLVESGGGLVQAGRSLRLSCAASVSIFAGYAMGWYRQAPGKERELVAGISYSGGRTYYADSVKGRFTISRDNAKNTVYLQMNSLKPEDTAVYYCNARFVRVRKGYGYWGLGTQVTVSS | high polyreactivity |
| QVQLVESGGGLVQAGRSLRVSCAASGRIFIWNAMGWYRQAPGNERELVAAISWSGGSTYYADSVKGRFTISRDNAKNTVYLQINSLKPEDTAVYYCAARDVRPYYVKPPVRYYYWGQGTQVTVSS | high polyreactivity |
| QVQLVESGGGLVQAGRTLRLSCAASGFTFYYNAMGWYRQAPGKERELVATITGSTYYADSVKGLFTISRDNATYSVYLQMNSLKPEDTAVYYCTADASLVLAEYDYWGQGTQVTVSS | low polyreactivity |
| QVQLVESGGGLVQAGVSLRISCAASASILVTNAMGWYRHAPGKERELVAAITSIGGSTNYADSVKGRFTISRDNAKNTVYLQMNSLKPEDTAVYYCAAGIYPTVFWVYYWGQGTQVTVSS | low polyreactivity |
| QVQLVESGGGLVQAGVSLRLSCAASGFTFYYNAMGWYRQAPGKERELVAAINYSGGSTYYADSVKGRFTISRDNAKNTVYLQMNSLKPEDTAVYYCNAVGYSVFRRYNYWGQGTQVTVSS | high polyreactivity |
| QVQLVESGGGLVQAGVSLRLSCAASGGTLSNYAMGWYRQAPGKERELVAAITYRGGSTYYADSVKGRFTISRDNAKNTVYLQMNSQKPEDTAVYSCAAPGFKPFSFDSWGQGTQVTVSS | low polyreactivity |
| QVQLVESGGGLVQAGVSLRLSCAASGKTVYSYAMGWYRQAPGKKRQLVAGISYIGGRTYYADSVKGRFTISRDNAKNTFYLQMNSLNPEDTAFYYCAAVYWYGRRKYYSWGQGTQVTVSS | high polyreactivity |
| QVQLVESGGGLVQAGVSLRLSCAASGLTFGNYAMGWYRQAPGKERELVAAISKRGGTTYYADSVKARFTISRDNAKNTVYLQMNSLKPEDTAVYYCSARDYSHPTDDNYWGQGTQVTVSS | high polyreactivity |
